Substitutions are numbered along the chain they refer to. Each block holds one binder with its values, some of them ahead of it.
Assays:
[1] = target: hLRRC33-proTGFβ1 presented on cells (human, UniProt P01137 30-390; Q86YC3 19-692); test: cell-based or functional assay
[2] = target: hLTBP3-proTGFβ1 as produced in the cell-based activation assay (human, UniProt P01137 30-390; Q9NS15 44-1303); test: cell-based or functional assay
[3] = target: hGARP-proTGFβ1 presented on cells (human, UniProt P01137 30-390; Q14392 20-662); test: cell-based or functional assay
[4] = target: hLTBP1-proTGFβ1 as produced in the cell-based activation assay (human, UniProt P01137 30-390; Q14766 347-1721); test: cell-based or functional assay
hLTBP1-proTGFβ1 as produced in the cell-based activation assay, sequence (P01137 30-390 limits assumed, chain 1 of 2): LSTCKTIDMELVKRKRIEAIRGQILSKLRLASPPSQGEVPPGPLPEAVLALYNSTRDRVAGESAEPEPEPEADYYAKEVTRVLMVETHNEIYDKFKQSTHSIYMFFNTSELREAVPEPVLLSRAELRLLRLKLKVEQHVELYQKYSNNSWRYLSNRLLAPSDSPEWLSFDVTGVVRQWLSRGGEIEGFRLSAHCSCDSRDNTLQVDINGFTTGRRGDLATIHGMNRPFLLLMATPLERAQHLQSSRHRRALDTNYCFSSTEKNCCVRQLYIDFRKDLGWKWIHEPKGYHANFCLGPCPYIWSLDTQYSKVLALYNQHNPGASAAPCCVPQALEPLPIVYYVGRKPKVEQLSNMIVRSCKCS
hLTBP1-proTGFβ1 as produced in the cell-based activation assay, sequence (Q14766 347-1721 limits assumed, chain 2 of 2): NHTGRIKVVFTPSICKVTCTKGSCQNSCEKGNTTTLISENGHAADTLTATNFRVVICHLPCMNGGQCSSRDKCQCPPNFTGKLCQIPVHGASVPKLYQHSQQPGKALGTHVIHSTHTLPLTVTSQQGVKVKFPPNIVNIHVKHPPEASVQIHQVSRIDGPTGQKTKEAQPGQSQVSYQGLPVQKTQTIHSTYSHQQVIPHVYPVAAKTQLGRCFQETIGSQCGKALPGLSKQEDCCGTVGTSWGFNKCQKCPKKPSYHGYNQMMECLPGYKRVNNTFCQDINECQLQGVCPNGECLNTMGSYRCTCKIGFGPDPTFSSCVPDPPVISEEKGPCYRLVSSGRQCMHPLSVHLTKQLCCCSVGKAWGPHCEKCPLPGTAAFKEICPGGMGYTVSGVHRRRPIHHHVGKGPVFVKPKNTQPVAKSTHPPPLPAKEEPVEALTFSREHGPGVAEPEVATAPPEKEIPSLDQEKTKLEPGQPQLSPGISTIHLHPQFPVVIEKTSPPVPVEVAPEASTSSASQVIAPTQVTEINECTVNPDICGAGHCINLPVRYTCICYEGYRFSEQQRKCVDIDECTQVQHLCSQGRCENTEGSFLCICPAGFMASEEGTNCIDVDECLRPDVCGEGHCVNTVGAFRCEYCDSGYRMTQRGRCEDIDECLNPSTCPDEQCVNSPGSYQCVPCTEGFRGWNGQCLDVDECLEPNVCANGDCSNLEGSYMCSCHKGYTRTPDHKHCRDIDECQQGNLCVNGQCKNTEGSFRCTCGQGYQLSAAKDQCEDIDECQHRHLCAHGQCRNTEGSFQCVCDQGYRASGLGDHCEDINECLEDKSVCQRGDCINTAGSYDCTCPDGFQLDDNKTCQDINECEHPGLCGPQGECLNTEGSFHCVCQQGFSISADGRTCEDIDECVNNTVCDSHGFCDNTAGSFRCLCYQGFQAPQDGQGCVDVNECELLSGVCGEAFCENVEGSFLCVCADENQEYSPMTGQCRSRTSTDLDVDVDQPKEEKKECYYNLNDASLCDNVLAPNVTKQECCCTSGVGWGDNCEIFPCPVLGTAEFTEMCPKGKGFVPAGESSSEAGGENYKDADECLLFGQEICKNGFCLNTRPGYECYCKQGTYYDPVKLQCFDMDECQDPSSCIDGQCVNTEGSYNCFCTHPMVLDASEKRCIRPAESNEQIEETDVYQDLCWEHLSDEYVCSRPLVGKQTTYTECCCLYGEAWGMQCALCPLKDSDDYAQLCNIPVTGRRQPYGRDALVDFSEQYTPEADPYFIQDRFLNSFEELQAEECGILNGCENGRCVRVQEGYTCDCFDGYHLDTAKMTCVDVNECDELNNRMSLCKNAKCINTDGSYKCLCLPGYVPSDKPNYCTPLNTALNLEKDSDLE

[5] = target: T1, human LRRC33-proTGFβ1 complex (human, UniProt P01137 30-390; Q86YC3 19-650); test: BLI (Octet)
T1 construct: also called hLRRC33-proTGFβ1; hLRRC33
T1 sequence (P01137 30-390 limits assumed, chain 1 of 2): as the sequence (P01137 30-390 limits assumed, chain 1 of 2) above
T1 sequence (Q86YC3 other isoform, or with tags, fused parts or gaps limits assumed, chain 2 of 2): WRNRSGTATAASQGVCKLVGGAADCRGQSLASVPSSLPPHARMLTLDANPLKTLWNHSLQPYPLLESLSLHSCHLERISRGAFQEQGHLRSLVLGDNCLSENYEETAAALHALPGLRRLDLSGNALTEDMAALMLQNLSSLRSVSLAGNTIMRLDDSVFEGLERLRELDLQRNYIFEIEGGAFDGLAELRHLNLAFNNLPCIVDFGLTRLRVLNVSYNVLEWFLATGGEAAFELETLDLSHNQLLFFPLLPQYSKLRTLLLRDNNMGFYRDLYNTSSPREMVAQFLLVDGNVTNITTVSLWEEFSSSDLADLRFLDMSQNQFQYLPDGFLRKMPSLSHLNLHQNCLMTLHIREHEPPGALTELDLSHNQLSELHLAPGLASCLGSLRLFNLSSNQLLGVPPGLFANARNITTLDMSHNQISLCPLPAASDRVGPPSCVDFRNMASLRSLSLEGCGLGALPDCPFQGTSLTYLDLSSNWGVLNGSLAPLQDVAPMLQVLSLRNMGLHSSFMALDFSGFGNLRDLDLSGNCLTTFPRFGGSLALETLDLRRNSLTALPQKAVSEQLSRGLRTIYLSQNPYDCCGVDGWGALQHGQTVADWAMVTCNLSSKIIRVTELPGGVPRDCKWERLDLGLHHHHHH
Protocol: (§1) The affinity of anti-TGFβ1 antibodies was measured by Octet@ assay on human proTGFβ1 cells, while activity was measured by CAGA12 reporter cells testing human proTGFβ1 inhibition.

[6] = target: T2, human GARP-proTGFβ1 complex (human, UniProt P01137 30-390; Q14392 20-627); test: BLI (Octet)
T2 construct: also called hGARP-proTGFβ1; hGARP
Protocol: as §1

[7] = target: T1, human LRRC33-proTGFβ1 complex; test: MSD-SET, hIgG4
Protocol: (§2) MSD-SET assays were performed to measure affinities of the antibodies at equilibrium. Briefly, each test antibody was diluted 3-5 fold and samples were mixed with biotinylated antigen in a 48-well dish. The SET samples were equilibrated for 20-24 hours at room temperature. Meanwhile, a capture plate was coated with IgG (20 nM) and incubated overnight at 4° C. or 30 minutes at room temperature, followed by a blocking step with 5% BSA. After the capture plate was washed three times, SET samples were added and incubated for 150 seconds. The plate was washed once to remove unbound complexes. 250 ng/ml SA-Sulfotag was added then washed 3 times. 2× Read Buffer was added, and signals from the labeled bound complexes were read with the use of QuickPlex™ SQ 120 instrument.

[8] = target: T2, human GARP-proTGFβ1 complex; test: MSD-SET, hIgG4
Protocol: as §2

hLRRC33-proTGFβ1 presented on cells, sequence (P01137 30-390 limits assumed, chain 1 of 2): as the sequence (P01137 30-390 limits assumed, chain 1 of 2) above
hLRRC33-proTGFβ1 presented on cells, sequence (Q86YC3 19-692 limits assumed, chain 2 of 2): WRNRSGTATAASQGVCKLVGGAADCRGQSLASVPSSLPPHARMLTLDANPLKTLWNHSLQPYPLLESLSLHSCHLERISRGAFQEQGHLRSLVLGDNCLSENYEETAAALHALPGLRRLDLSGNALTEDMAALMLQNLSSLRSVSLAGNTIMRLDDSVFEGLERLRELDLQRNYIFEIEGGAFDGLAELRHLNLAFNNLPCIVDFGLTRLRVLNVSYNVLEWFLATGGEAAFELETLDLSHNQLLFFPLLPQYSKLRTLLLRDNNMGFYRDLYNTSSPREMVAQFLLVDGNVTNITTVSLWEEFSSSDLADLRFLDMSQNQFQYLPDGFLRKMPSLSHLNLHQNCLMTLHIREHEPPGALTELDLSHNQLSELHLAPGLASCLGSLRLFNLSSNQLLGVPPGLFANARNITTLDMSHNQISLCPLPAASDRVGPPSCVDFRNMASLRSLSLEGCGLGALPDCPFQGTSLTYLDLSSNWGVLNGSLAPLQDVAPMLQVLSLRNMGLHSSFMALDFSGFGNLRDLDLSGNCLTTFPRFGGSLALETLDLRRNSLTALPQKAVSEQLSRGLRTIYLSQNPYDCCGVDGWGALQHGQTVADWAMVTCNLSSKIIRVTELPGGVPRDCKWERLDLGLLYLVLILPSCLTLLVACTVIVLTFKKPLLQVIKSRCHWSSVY
hLTBP3-proTGFβ1 as produced in the cell-based activation assay, sequence (P01137 30-390 limits assumed, chain 1 of 2): as the sequence (P01137 30-390 limits assumed, chain 1 of 2) above
hLTBP3-proTGFβ1 as produced in the cell-based activation assay, sequence (Q9NS15 44-1303 limits assumed, chain 2 of 2): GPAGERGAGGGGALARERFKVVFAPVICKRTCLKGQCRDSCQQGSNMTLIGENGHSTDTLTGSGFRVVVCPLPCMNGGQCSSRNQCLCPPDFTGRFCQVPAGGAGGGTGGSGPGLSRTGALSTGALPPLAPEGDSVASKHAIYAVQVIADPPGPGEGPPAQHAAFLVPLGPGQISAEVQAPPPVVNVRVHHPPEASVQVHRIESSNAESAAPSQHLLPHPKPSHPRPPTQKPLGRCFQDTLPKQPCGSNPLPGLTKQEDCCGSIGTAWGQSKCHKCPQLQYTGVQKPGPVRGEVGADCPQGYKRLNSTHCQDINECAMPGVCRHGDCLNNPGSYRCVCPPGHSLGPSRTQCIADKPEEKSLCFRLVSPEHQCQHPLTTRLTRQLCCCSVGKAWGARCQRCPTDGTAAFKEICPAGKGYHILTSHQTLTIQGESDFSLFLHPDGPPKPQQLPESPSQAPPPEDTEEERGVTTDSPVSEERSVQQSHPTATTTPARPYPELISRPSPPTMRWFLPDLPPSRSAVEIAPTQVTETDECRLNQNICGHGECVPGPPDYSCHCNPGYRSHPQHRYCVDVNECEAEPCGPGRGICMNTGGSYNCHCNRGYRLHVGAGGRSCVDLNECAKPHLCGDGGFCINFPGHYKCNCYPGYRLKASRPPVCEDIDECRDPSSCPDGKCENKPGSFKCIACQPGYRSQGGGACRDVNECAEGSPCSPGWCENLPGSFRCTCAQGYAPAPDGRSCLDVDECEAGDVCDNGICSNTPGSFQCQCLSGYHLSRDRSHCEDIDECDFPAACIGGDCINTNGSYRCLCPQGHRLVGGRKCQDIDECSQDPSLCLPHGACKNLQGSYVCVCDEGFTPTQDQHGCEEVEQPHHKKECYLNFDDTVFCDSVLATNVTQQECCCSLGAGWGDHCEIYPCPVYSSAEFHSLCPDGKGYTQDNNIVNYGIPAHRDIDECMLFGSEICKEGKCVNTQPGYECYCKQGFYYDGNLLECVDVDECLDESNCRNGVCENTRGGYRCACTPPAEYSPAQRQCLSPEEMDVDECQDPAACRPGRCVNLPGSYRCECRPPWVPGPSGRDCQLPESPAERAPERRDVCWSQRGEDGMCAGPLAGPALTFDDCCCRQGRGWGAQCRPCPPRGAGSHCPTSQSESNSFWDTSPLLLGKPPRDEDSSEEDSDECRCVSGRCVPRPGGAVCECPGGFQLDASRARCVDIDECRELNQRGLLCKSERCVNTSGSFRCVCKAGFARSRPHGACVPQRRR

- IC50, reporter cell assay [1]: 0.616 nM
- IC50, reporter cell assay [2]: 1 nM
- IC50, reporter cell assay [3]: 0.14 nM
- IC50, reporter cell assay [4]: 1.29 nM
B1: Ab5 (antibody, V domains shown)
VH: EVQLVESGGGLVQPGGSLRLSCAASGFTFSSFSMDWVRQAPGKGLEWVSYISPDASTIYYADSVKGRFTISRDNAKNSLYLQMNSLRAEDTAVYYCARGVLDYGDMLDPWGQGTLVTVSS
VL: DIQMTQSPSSLSASVGDRVTITCQASQDITNYLNWYQQKPGKAPKLLIYDASNLETGVPSRFSGSGSGTDFTFTISSLQPEDIATYYCQQADNHPPWTFGGGTKVEIK

- Kd [5]: 0.455 nM
- Kd [6]: 0.833 nM
- IC50, reporter cell assay [1]: 0.596 nM
- IC50, reporter cell assay [2]: 0.765 nM
- IC50, reporter cell assay [3]: 0.401 nM
- IC50, reporter cell assay [4]: 1.61 nM
B2: Ab21 (antibody, V domains shown)
VH: B1 VH
VL: B1 VL

- Kd [5]: 0.409 nM
- Kd [6]: 0.488 nM
- IC50, reporter cell assay [1]: 0.653 nM
- IC50, reporter cell assay [2]: 0.538 nM
- IC50, reporter cell assay [3]: 0.442 nM
- IC50, reporter cell assay [4]: 6.08 nM
B3: Ab25 (antibody, V domains shown)
VH: B1 VH with S30G
VL: B1 VL

- Kd [5]: 0.415 nM
- Kd [6]: 0.974 nM
- Kd [7]: 0.2 nM
- Kd [8]: 0.027 nM
B4: Ab22 (antibody, IgG4, V domains shown)
VH: B1 VH with S30G, D35N, S52H, P53S
VL: B1 VL

- Kd [5]: 0.36 nM
- Kd [6]: 0.625 nM
- IC50, reporter cell assay [1]: 0.341 nM
- IC50, reporter cell assay [2]: 0.716 nM
- IC50, reporter cell assay [3]: 0.262 nM
- IC50, reporter cell assay [4]: 0.713 nM
- Kd [7]: 0.13 nM
- Kd [8]: 0.014 nM
B5: Ab26 (antibody, IgG4, V domains shown)
VH: B1 VH with S78T
VL: B1 VL

- Kd [5]: 0.339 nM
- Kd [6]: 0.265 nM
- IC50, reporter cell assay [1]: 0.738 nM
- IC50, reporter cell assay [2]: 1.11 nM
- IC50, reporter cell assay [3]: 0.198 nM
- IC50, reporter cell assay [4]: 1.56 nM
- Kd [7]: 0.046 nM
- Kd [8]: 0.0078 nM
B6: Ab33 (antibody, IgG4, V domains shown)
VH: B1 VH with D35N, D54S, S56D, S78T, R98H
VL: B1 VL

- Kd [5]: 0.535 nM
- Kd [6]: 0.833 nM
- Kd [7]: 0.14 nM
- Kd [8]: 0.022 nM
B7: Ab30 (antibody, IgG4, V domains shown)
VH: B1 VH with V100T
VL: B1 VL

- Kd [5]: 0.41 nM
- Kd [6]: 0.581 nM
- Kd [7]: 0.096 nM
- Kd [8]: 0.019 nM
B8: Ab31 (antibody, IgG4, V domains shown)
VH: B1 VH with S78T, G99A
VL: B1 VL

- Kd [5]: 0.409 nM
- Kd [6]: 0.797 nM
B9: Ab28 (antibody, V domains shown)
VH: B1 VH with A97V
VL: B1 VL

- Kd [5]: 0.455 nM
- Kd [6]: 1.34 nM
- IC50, reporter cell assay [1]: 0.579 nM
- IC50, reporter cell assay [2]: 0.879 nM
- IC50, reporter cell assay [3]: 0.264 nM
- IC50, reporter cell assay [4]: 0.835 nM
B10: Ab23 (antibody, V domains shown)
VH: B1 VH with D35N, D54S, S56D, S78T
VL: B1 VL

- Kd [5]: 0.302 nM
- Kd [6]: 0.307 nM
- IC50, reporter cell assay [1]: 0.458 nM
- IC50, reporter cell assay [2]: 0.803 nM
- IC50, reporter cell assay [3]: 0.264 nM
- IC50, reporter cell assay [4]: 0.471 nM
- Kd [7]: 0.043 nM
- Kd [8]: 0.0055 nM
B11: Ab29 (antibody, IgG4, V domains shown)
VH: B1 VH with G16R, S33A, D35N, D62G, A97V, G99A
VL: B1 VL

- Kd [5]: 0.41 nM
- Kd [6]: 0.665 nM
- Kd [7]: 0.18 nM
- Kd [8]: 0.019 nM
B12: Ab24 (antibody, IgG4, V domains shown)
VH: B1 VH with G16R, S33A, D35Y
VL: B1 VL

- Kd [5]: 0.698 nM
- Kd [6]: 0.496 nM
- Kd [7]: 0.087 nM
- Kd [8]: 0.015 nM
B13: Ab32 (antibody, IgG4, V domains shown)
VH: B1 VH with D35N, D54S, S56D, S78T, L101W, Y103M
VL: B1 VL

- Kd [5]: 0.299 nM
- Kd [6]: 0.424 nM
B14: Ab27 (antibody, V domains shown)
VH: B1 VH with S31F, F32Y, S33A, D35N
VL: B1 VL

- Kd [5]: 0.631 nM
- Kd [6]: 4.16 nM
B15: Ab16 (antibody, V domains shown)
VH: EVQLLESGGGLVQPGGSLRLSCAASGFTFSNYAMSWVRQAPGKGLEWVSAISGSGFTTYYADSVKGRFTISRDNSKNTLYLQMNSLRAEDTAVYYCARVSSGHWDFDYWGQGTLVTVSS
VL: DIQLTQSPSSLSASVGDRVTITCRASQSISSYLNWYQQKPGKAPKLLIYAASNLQSGVPSRFSGSGSGTDFTLTISSLQPEDFATYYCQQTYTVPLTFGGGTKVEIK

- IC50, reporter cell assay [1]: 5.37 nM
- IC50, reporter cell assay [2]: 2.71 nM
- IC50, reporter cell assay [3]: 3.71 nM
- IC50, reporter cell assay [4]: 14.5 nM
B16: Ab1 (antibody, V domains shown)
VH: B15 VH with S30R, A50S, F56G, T57A
VL: DIQLTQSPSSLSASVGDRVTITCQASQDISNFLNWYQQKPGKAPKLLIYDASNLETGVPSRFSGSGSGTDFTFTISSLQPEDIATYYCQQVFNPPLTFGGGTKVEIK

- Kd [5]: 1.42 nM
- Kd [6]: 12.8 nM
B17: Ab36 (antibody, V domains shown)
VH: B15 VH with S30R, A50S, F56G, T57A, F106L
VL: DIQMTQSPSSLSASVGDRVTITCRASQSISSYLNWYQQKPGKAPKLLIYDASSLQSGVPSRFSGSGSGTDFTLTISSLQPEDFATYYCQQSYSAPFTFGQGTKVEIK

- Kd [5]: 1.4 nM
- Kd [6]: 10 nM
B18: Ab13 (antibody, V domains shown)
VH: B15 VH with S30A, N31D, S35T, G53S, S54F, G55A, F56S, T57A, T58I
VL: B15 VL with L4M, N53S, T91V, T93D, V94P

- Kd [5]: 1.3 nM
- Kd [6]: 15.5 nM
B19: Ab9 (antibody, V domains shown)
VH: B15 VH with E1Q, L5V, L11V, N31S, Y32F, S35T, F56A, T57A, Y60F
VL: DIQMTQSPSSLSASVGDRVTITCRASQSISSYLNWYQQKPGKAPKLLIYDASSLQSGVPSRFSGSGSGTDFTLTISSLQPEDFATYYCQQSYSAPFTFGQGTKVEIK

- Kd [5]: 1.06 nM
- Kd [6]: 10.2 nM
B20: Ab10 (antibody, V domains shown)
VH: B15 VH with S30R, A50S, F56G, T57A
VL: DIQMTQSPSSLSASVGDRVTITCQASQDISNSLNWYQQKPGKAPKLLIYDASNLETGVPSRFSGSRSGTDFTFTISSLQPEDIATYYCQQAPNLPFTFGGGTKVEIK

- Kd [5]: 10 nM
- Kd [6]: 15.4 nM
B21: Ab8 (antibody, V domains shown)
VH: B15 VH with E1Q, L5V, L11V, G16R, N31D, S35V
VL: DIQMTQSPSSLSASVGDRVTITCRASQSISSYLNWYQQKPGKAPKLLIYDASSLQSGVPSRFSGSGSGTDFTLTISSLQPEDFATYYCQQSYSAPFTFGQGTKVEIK

- Kd [5]: 10.3 nM
- Kd [6]: 18 nM
B22: Ab7 (antibody, V domains shown)
VH: B15 VH with S30A, N31D, S35T, S54T, F56A, T57H
VL: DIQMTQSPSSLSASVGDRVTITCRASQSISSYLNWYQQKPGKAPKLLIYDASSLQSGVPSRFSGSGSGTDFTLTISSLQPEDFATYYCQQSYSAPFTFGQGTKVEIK

- Kd [5]: 1.02 nM
- Kd [6]: 11.5 nM
B23: Ab18 (antibody, V domains shown)
VH: B15 VH with E1Q, L5V, L11V, G16R, N31D, S35V, F56A, T57A, Y60F, R98T
VL: B15 VL

- Kd [5]: 1.34 nM
- Kd [6]: 10.5 nM
B24: Ab14 (antibody, V domains shown)
VH: B15 VH with N31A, S35T, S54T, F56G, T57S
VL: B15 VL with L4M, N53S, T91V, T93D, V94P

- Kd [5]: 0.702 nM
- Kd [6]: 7.01 nM
B25: Ab15 (antibody, V domains shown)
VH: B15 VH with L5V, L11V, G16R, N31D, S35V
VL: B15 VL

- Kd [5]: 0.658 nM
- Kd [6]: 8.62 nM
B26: Ab17 (antibody, V domains shown)
VH: B15 VH with L11V, N31S, Y32F, S35T, F56A, T57A, Y60F
VL: B15 VL

Reference: US20250215072A1 (published 2025)
